From paper PMC3889205 (FEBS letters, 2013)
Read-outs that look alike come from different tables or passages of the source.

Experiments:
Assay in all cases: FRET or BRET
[1] = target: T1, Cy3-labeled recombinant rat hepatocyte nuclear factor 4α (rat, UniProt P22449 1-474, Cy3 fluorophore label (site not stated))
T1 sequence (looked up): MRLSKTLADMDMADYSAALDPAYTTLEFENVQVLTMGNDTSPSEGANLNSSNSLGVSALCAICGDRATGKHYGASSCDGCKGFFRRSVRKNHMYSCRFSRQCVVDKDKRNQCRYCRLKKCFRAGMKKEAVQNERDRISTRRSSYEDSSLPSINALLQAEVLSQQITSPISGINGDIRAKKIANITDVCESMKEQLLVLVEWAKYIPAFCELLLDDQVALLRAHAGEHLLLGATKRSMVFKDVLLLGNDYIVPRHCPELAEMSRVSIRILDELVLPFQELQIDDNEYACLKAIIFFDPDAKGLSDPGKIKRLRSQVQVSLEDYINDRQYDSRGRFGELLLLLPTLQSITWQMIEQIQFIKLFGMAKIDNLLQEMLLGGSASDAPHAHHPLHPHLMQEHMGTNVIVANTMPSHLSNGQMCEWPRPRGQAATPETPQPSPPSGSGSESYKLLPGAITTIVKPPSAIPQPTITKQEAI

[2] = target: T2, Cy3-labeled β-galactosidase (UniProt P00722 1-1024 = β-galactosidase, Cy3 fluorophore label (site not stated))
[3] = target: T1, Cy3-labeled recombinant rat hepatocyte …; remark: listed apart in the source
[4] = target: T2, Cy3-labeled β-galactosidase; remark: listed apart in the source

T2 sequence (P00722 whole entry): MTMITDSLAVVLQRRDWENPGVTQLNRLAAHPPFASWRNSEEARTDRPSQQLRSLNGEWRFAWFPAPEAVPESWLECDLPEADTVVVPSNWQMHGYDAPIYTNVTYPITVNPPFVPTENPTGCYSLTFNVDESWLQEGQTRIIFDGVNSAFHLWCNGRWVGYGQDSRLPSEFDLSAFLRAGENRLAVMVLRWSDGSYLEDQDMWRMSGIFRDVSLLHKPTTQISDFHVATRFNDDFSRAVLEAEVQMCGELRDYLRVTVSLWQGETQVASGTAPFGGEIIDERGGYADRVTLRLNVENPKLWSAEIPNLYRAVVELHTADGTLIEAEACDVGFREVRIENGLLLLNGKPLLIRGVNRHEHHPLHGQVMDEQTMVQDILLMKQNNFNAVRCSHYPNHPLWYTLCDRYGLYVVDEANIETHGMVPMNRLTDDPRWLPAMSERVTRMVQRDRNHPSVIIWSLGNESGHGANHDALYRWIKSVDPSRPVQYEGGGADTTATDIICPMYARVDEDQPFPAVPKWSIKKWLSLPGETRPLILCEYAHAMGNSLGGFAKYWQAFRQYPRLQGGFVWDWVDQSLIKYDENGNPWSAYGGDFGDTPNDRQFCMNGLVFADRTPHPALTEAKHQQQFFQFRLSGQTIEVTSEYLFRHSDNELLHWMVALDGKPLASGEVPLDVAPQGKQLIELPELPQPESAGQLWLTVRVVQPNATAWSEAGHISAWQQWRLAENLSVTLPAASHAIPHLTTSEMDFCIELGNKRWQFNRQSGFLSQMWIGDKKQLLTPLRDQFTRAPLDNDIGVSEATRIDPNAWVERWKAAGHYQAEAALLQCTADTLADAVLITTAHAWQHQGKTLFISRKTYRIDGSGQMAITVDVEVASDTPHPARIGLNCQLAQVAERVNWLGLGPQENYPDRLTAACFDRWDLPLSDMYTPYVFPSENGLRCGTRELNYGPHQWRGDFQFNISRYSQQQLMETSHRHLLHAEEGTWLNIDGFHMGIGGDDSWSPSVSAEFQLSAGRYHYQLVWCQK

B1: Cy5-labeled recombinant rat liver-type fatty acid binding protein (natural protein, UniProt P02692 1-127, looked up)
chain: MNFSGKYQVQSQENFEPFMKAMGLPEDLIQKGKDIKGVSEIVHEGKKVKLTITYGSKVIHNEFTLGEECELETMTGEKVKAVVKMEGDNKMVTTFKGIKSVTEFNGDTITNTMTLGDIVYKRVSKRI
modifications: Cy5 fluorophore label (site not stated)
Kd [1]: 0.25 µM | Kd [2]: > 10 µM | Kd [3]: 0.3 µM | Kd [4]: > 10 µM
